Assay results: article PMC6103731 (RNA Biology, 2017)
Changes are numbered by the printed parent chain. In names and notes the source's numbering stands. Values belong to the binder of their own block, whether it stands above or below them.

Experiments:
[1] = molecular target: T1, EC1-2 domain of VE-cadherin; test: SPR
T1 sequence (P33151 whole entry, species assumed, looked up): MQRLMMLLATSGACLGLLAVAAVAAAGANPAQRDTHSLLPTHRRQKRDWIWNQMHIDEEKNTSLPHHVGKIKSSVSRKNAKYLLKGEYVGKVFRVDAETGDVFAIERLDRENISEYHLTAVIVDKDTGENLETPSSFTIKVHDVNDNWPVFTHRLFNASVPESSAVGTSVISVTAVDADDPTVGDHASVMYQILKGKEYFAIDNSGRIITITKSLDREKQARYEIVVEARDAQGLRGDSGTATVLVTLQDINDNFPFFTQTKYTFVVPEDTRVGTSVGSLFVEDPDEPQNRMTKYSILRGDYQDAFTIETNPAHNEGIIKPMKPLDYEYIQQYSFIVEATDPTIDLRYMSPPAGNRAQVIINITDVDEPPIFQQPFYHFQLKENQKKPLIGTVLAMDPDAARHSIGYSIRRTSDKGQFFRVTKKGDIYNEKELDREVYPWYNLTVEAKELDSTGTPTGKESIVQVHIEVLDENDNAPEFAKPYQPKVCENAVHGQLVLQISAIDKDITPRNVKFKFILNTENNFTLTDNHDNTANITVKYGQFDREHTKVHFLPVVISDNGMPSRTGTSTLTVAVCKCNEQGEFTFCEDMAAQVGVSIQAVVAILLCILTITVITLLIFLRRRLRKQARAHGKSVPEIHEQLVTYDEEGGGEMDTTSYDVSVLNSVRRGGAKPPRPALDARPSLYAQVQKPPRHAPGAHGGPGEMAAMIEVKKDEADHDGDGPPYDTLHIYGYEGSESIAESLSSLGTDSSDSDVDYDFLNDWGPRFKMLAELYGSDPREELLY

[2] = molecular target: the molecule itself; test: crystal structure

fold stronger binding affinity than WT T2-TrpRS [1]: > 50 fold | kon [1]: 2.71e+07 M⁻¹ s⁻¹
B1: human H130R T2-TrpRS (domain or fragment, UniProt P23381 97-471, looked up)
chain: GIDYDKLIVRFGSSKIDKELINRIERATGQRPHRFLRRGIFFSHRDMNQVLDAYENKKPFYLYTGRGPSSEAMHVGHLIPFIFTKWLQDVFNVPLVIQMTDDEKYLWKDLTLDQAYSYAVENAKDIIACGFDINKTFIFSDLDYMGMSSGFYKNVVKIQKHVTFNQVKGIFGFTDSDCIGKISFPAIQAAPSFSNSFPQIFRDRTDIQCLIPCAIDQDPYFRMTRDVAPRIGYPKPALLHSTFFPALQGAQTKMSASDPNSSIFLTDTAKQIKTKVNKHAFSGGRDTIEEHRQFGGNCDVDVSFMYLTFFLEDDDKLEQIRKDYTSGAMLTGELKKALIEVLQPLIAEHQARRKEVTDEIVKEFMTPRKLSFDFQ
stoichiometry N [2]: 2

kon [1]: 176000 M⁻¹ s⁻¹
B2: wild-type human T2-TrpRS (domain or fragment)
chain: B1 chain with R34H
